Measured values published in patent publication US20200023080A1, “COMPOSITIONS AND METHOD FOR THE TREATMENT AND DETECTION OF COLON CANCER” (priority 2015, published 2020).
Positions of bridges follow the written chain, without caps; N, C: chain ends. Non-standard residues stand in square brackets, D forms with d. No end group written: not given here. Cy5.5 = cyanine dye Cy5.5, conjugated via NHS ester; Cy3 = cyanine dye Cy3, conjugated via NHS ester

T1: cell membranes isolated from rat intestinal tissues (Rattus norvegicus, UniProt P23897)
T1 construct: cell membranes isolated from T84 cells and from rat intestinal tissues; from tissue; host or cells: rat intestinal tissue membranes
T1 sequence (P23897 23-1072): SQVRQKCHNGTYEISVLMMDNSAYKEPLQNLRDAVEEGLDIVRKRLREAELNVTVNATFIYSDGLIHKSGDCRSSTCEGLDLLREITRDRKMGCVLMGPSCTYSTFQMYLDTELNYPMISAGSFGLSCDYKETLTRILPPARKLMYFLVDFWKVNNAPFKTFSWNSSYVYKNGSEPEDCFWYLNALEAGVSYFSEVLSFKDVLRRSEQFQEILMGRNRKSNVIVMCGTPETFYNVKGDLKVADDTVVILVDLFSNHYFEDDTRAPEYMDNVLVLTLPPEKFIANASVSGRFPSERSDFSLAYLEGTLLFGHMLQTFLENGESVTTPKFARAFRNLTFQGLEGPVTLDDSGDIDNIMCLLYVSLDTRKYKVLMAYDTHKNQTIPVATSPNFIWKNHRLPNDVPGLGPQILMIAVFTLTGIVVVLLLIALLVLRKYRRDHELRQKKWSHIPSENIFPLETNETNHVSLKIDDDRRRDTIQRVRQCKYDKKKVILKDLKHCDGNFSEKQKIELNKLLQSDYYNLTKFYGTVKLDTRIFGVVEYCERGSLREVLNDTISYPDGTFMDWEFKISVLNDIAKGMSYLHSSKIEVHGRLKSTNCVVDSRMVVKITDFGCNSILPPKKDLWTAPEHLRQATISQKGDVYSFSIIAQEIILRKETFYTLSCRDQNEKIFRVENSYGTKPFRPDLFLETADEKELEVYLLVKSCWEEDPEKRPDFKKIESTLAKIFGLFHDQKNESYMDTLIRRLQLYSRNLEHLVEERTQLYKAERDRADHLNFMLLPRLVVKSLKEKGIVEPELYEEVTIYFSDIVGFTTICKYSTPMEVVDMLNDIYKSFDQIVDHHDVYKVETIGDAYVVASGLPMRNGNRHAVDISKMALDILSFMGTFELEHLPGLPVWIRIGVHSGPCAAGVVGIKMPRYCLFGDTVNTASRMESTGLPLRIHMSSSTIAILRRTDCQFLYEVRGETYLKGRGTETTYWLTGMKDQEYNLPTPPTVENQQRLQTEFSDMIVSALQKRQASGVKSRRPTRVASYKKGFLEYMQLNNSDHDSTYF

T2: GC-C receptor in rat intestinal tissues (rat, UniProt P23897 23-1072)
T2 construct: whole, on cells; the protein target is inferred from the preceding sentence on GC-C receptors; also called cell membranes from rat intestinal tissues; rat intestinal fragments
T2 sequence (looked up): T1 sequence (P23897 23-1072)

B1: Cy3-SP-333 (peptide)
peptide: Cy3-[dN]DECELCVNVACTGC[dL]
modifications: disulfide 4-12, 7-15
B2: SP-333 (dolcanatide), unlabeled (peptide)
peptide: [dN]DECELCVNVACTGC[dL]
modifications: disulfide 4-12, 7-15
notes: Synthetic analog of uroguanylin; also called Api 1251
B3: Cy5.5-SP-333 (peptide)
peptide: {Cy5.5}-[dN]DECELCVNVACTGC[dL]
modifications: disulfide 4-12, 7-15

Tests used:
[1] = biological target: T3, GC-C receptors expressed on the surface of T84 cells (Homo sapiens, UniProt P25092); experiment: Binding of Cy3/Cy5.5 probes to T84 cells
T3 construct: endogenous in cells; host or cells: T84 cells, intact or as isolated cell membranes
Source text: (§1) SP-333 was labeled with an appropriate infrared (IR) fluorescence dye for in vivo imaging purposes. The peptide was to be labeled with an appropriate IR dye through the reaction of a N-hydroxysuccinamidyl (NHS) activated ester with the amine group of the peptide. Our initial test with the VivoTag680 NHS ester supplied by PerkinElmer, Inc was not successful. […] Labeling SP-333 with Cy3 and the subsequent HPLC purification was successful, with an overall labeling efficiency of 30% achieved. […] Both Cy3 and Cy5.5 belong to a family of cyanine fluorescence dyes used in bioimaging applications. […] We performed similar binding experiments with the cell membranes isolated from T84 cells and from rat intestinal tissues. […] Thus, SP-333-IR680 fluorescence was custom synthesized.

rat intestinal fragments = experiment: Ex vivo binding of Cy3/Cy5.5 probes with rat intestinal fragments
Source text: as §1

[2] = biological target: T1, cell membranes isolated from rat intestinal tissues; experiment: Binding of Cy3/Cy5.5 probes to cell membranes from rat intestinal tissues
Source text: as §1

[3] = biological target: T4, cell membranes isolated from T84 cells (Homo sapiens, UniProt P25092); experiment: Binding of Cy3/Cy5.5 probes to cell membranes isolated from T84 cells
T4 construct: endogenous in cells; host or cells: T84 cells, intact or as isolated cell membranes
Source text: as §1

GC-C receptor = GC-C receptor (Homo sapiens, UniProt P25092); experiment: Binding of dye-conjugated SP-333 to GC-C receptors (method not specified)
Source text: as §1

[4] = biological target: T2, GC-C receptor in rat intestinal tissues; experiment: binding to cell membranes from rat intestinal tissues; ex vivo binding with rat intestinal fragments
[5] = biological target: T5, Guanylate cyclase C (GC-C) receptor expressed on human T84 cells (human, UniProt P25092 24-1073); experiment: competition of unlabeled SP-333 against IR680-SP-333 probe binding on T84 cells
T5 construct: whole, on cells; also called GC-C receptors
T5 sequence (P25092 24-1073): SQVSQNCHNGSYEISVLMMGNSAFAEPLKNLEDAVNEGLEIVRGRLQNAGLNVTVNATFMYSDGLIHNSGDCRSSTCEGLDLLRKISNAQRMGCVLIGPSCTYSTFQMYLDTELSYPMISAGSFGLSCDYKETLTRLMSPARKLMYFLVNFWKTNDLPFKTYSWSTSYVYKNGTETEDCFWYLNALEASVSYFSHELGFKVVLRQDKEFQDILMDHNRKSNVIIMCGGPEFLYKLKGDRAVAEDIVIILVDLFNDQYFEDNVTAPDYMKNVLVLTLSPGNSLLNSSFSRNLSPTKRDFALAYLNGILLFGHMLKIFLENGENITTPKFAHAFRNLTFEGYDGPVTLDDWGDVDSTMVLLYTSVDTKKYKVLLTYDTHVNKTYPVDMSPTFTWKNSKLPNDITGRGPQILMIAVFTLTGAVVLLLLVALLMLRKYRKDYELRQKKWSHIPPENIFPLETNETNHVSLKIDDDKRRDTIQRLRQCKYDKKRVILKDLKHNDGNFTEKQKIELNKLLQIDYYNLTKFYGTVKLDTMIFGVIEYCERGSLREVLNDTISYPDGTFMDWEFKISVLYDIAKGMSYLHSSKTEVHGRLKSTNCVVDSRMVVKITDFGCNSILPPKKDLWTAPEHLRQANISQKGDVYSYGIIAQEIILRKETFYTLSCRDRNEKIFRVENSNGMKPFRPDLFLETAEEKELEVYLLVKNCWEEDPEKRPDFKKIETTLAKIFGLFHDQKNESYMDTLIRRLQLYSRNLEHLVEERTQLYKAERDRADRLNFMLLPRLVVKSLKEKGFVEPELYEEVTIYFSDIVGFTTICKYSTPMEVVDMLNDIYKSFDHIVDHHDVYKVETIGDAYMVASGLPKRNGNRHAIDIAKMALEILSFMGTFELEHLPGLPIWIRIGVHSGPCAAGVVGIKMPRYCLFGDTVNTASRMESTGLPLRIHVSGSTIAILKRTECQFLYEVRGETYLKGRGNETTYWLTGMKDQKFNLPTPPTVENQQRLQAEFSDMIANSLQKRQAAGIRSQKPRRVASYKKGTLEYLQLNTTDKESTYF

Sequence of GC-C receptor (P25092 24-1073): as above
T3 sequence (P25092 24-1073): as above
T4 sequence (P25092 24-1073): as above

| Molecule | specific binding to GC-C receptors on the surface of T84 cells [1] | specific binding in ex vivo binding with rat intestinal fragments (rat intestinal fragments) | specific binding to cell membranes isolated from rat intestinal tissues [2] | specific binding to cell membranes isolated from T84 cells [3] | binding to GC-C receptors after conjugation of dye to the N-terminal of SP-333 (GC-C receptor) | binding result [4] | IC50 [5] |
| --- | --- | --- | --- | --- | --- | --- | --- |
| Cy5.5-SP-333: SP-333 conjugated with cyanine fluorescence dye Cy5.5 NHS ester ({Cy5.5}-[dN]DECELCVNVACTGC[dL]; disulfide 4-12, 7-15) | failed to exhibit specific binding | lack of specific binding | did not show any specific binding | did not show any specific binding | without appreciable loss | – | – |
| Cy3-SP-333: SP-333 conjugated with cyanine fluorescence dye Cy3-NHS ester (Cy3-[dN]DECELCVNVACTGC[dL]; disulfide 4-12, 7-15) | failed to exhibit specific binding | lack of specific binding | did not show any specific binding | did not show any specific binding | without appreciable loss | – | – |
| B1 | – | – | – | – | – | no binding | – |
| B2 | – | – | – | – | – | – | ~1600 nM |
| B3 | – | – | – | – | – | no binding | – |
